Target: T1, rLin28 (Lin28) (UniProt Q9H9Z2 1-209)
T1 sequence: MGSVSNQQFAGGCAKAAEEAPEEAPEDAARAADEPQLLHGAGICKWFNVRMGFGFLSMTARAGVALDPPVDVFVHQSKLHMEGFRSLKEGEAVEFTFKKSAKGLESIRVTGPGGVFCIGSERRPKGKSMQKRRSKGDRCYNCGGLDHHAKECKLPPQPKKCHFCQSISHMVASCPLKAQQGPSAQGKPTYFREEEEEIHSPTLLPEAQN
Experiment: EMSA

B1: pre-let-7a-1 (structured_RNA)
RNA: GGGCUGAGGUAGUAGGUUGUAUAGUUUUAGGGUCACACCCACCACUGGGAGAUAACUAUACAAUCUACUGUCUUUCC
  Kd: 1990 nM

Reference: paper PMC3333870
